# Data published in US11491212.
# B1: FIXa-R338E/R403E/E410N (mature FIX numbering) (protein)
# chain 1: not shown
# chain 2: not shown
# B2: FIXa-Y155F/R338E/R403E/E410N (mature FIX numbering) (protein)
# chain 1: not shown
# chain 2: not shown
# B3: FIXa-R318Y/R338E/R403E (mature FIX numbering) (protein)
# chain 1: not shown
# chain 2: not shown
# B4: FIXa-Y155F/R318Y/R338E/R403E (mature FIX numbering) (protein)
# chain 1: not shown
# chain 2: not shown
# B5: FIXa-D203N/F205T/K228N (mature FIX numbering) (protein)
# chain 1: not shown
# chain 2: not shown
# B6: FIXa-D203N/F205T/E410N (mature FIX numbering) (protein)
# chain 1: not shown
# chain 2: not shown
# B7: FIXa-D203N/F205T/R338E (mature FIX numbering) (protein)
# chain 1: not shown
# chain 2: not shown
# B8: FIXa-D203N/F205T/R338A (mature FIX numbering) (protein)
# chain 1: not shown
# chain 2: not shown
# B9: FIXa-D203N/F205T/R318Y (mature FIX numbering) (protein)
# chain 1: not shown
# chain 2: not shown
# B10: FIXa-D203N/F205T/R338E/R403E (mature FIX numbering) (protein)
# chain 1: not shown
# chain 2: not shown
# B11: FIXa-K228N/R318Y/R338E/R403E/E410N (protein)
# chain 1: not shown
# chain 2: not shown
# B12: FIXa-D85N/K228N/R318Y/R338E/R403E/E410N (protein)
# chain 1: not shown
# chain 2: not shown
# B13: FIXa-I251S/R318Y/R338E/R403E/E410N (protein)
# chain 1: not shown
# chain 2: not shown
# B14: FIXa-D104N/K106S/I251S/R318Y/R338E/R403E/E410N (protein)
# chain 1: not shown
# chain 2: not shown
# Target: Factor X (FX), P00742
# Sequence (P00742 whole entry, looked up): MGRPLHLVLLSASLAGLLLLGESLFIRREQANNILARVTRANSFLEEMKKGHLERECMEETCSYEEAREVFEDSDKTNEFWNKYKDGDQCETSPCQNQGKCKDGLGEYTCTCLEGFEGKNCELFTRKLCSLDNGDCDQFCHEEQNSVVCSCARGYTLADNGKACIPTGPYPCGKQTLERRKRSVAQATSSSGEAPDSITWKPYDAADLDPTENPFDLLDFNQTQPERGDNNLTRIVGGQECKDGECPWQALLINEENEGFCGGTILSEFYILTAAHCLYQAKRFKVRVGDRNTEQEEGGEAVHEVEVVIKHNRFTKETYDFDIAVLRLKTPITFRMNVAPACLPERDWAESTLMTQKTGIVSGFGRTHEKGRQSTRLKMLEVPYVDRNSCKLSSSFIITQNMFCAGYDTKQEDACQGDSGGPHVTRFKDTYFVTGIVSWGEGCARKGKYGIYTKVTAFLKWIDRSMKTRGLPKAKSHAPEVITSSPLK
Protein,% of WT kcat/KM [%],further results
B1,411,–
B2,401,kcat/KM: 1.8e+08 M⁻¹ s⁻¹
B3,134,–
B4,189,–
B5,30,–
B6,91,–
B7,228,–
B8,135,–
B9,44,–
B10,41,–
B11,–,"% of WT kcat/KM (against Catalyst Biosciences WT FIXa): 339%; kcat/KM for activation of FX by FIXa in the Xase complex (FVIIIa, PC/PS vesicles, Ca2+), fluorogenic Spectrafluor FXa read-out: 1.6e+08 M⁻¹ s⁻¹"
B12,–,"% of WT kcat/KM (against Catalyst Biosciences WT FIXa): 336%; kcat/KM for activation of FX by FIXa in the Xase complex (FVIIIa, PC/PS vesicles, Ca2+), fluorogenic Spectrafluor FXa read-out: 1.6e+08 M⁻¹ s⁻¹"
B13,–,"% of WT kcat/KM (against Catalyst Biosciences WT FIXa): 334%; kcat/KM for activation of FX by FIXa in the Xase complex (FVIIIa, PC/PS vesicles, Ca2+), fluorogenic Spectrafluor FXa read-out: 1.5e+08 M⁻¹ s⁻¹"
B14,–,"% of WT kcat/KM (against Catalyst Biosciences WT FIXa): 263%; kcat/KM for activation of FX by FIXa in the Xase complex (FVIIIa, PC/PS vesicles, Ca2+), fluorogenic Spectrafluor FXa read-out: 1.2e+08 M⁻¹ s⁻¹"
